According to patent US7799901B2, “Modulators of the function of FAS receptors and other proteins” (Yeda Research and Development Co. Ltd., priority 1995, dated 2010):

Tests used:
MACHβ1 = target: T1, MACHβ1 (Homo sapiens, UniProt Q14790); assay: Two-hybrid β-galactosidase filter assay (FIG. 5), binding to MACHβ1; conditions: two hybrid test
T1 construct: a construct encoding only the ORF-B (MACH B) region; expressed in transfected cells; host or cells: SFY526 yeast
Protocol: The yeast two-hybrid test was further applied to evaluate the specificity of binding of MACH to MORT-1, in particular, to define the region in MORT-1 to which MACH binds, as well as to determine which of the MACH ORFs interacts with MORT-1, the procedures being as set forth herein above in Examples 1 and 2. Briefly, various MORT-1 and MACH constructs were prepared for testing the interaction of the proteins encoded by the Gal4 DNA-binding domain and activation domain constructs within transfected SFY526 yeast cells as assessed by the β-galactosidase expression filter assay. The DNA-binding domain constructs were prepared in pGBT9 vectors and the activation domain constructs were prepared in pGAD-GM vectors. For the activation domain constructs, the full-length MACH cDNA was used (MACH), as was a construct encoding only the ORF-B (MACH B) region. Control activation domain constructs were those containing the full-length MORT-1 coding sequence (MORT 1, positive control) and those having no inserts, i.e., “empty” vectors (pGAD-GM). For the DNA-binding domain constructs, the full-length MORT-1 cDNA was used (MORT 1), as were constructs encoding only the MORT-1 […] (MORT-1DD aa 130-245). […] In the assay, the development of color was determined, where the greater the color development, the greater the interaction between the constructs encoded by the DNA-binding domain and activation domain; Color development was depicted by symbols, where “+++” and “+” indicate the development of a strong color within 30 and 90 min. of the assay, respectively, and “−−−” indicates the lack of development of color within 24 hrs. of the assay. […]
In FIG. 5, there is shown the results of the interaction of MORT-1 and MACH within transfected yeast cells. […] Their interaction was assessed by a β-galactosidase expression filter assay as described in Boldin et al (1995b). […]

MACH B = target: T2, MACH B (Homo sapiens, UniProt Q14790); assay: Two-hybrid β-galactosidase expression filter assay in SFY526 yeast, DNA-binding domain hybrid MACH B; conditions: DNA-binding domain hybrid MACH B (ORF-B region)
T2 construct: a construct encoding only the ORF-B (MACH B) region; expressed in transfected cells; host or cells: SFY526 yeast
From the text: To isolate proteins interacting with the intracellular domain of the FAS-R, the yeast two-hybrid system was used (Fields and Song, 1989). […] In this system, the genes for the candidate interacting proteins are cloned into separate expression vectors. In one expression vector, the sequence of the one candidate protein is cloned in phase with the sequence of the GAL4 DNA-binding domain to generate a hybrid protein with the GAL4 DNA-binding-domain, and in the other vector, the sequence of the second candidate protein is cloned in phase with the sequence of the GAL4 activation domain to generate a hybrid protein with the GAL4-activation domain. The two hybrid vectors are then co-transformed into a yeast host strain having a lacZ or HIS3 reporter gene under the control of upstream GAL4 binding sites. […]
The yeast two-hybrid test was further applied to evaluate the specificity of binding of MACH to MORT-1, in particular, to define the region in MORT-1 to which MACH binds, as well as to determine which of the MACH ORFs interacts with MORT-1, the procedures being as set forth herein above in Examples 1 and 2. Briefly, various MORT-1 and MACH constructs were prepared for testing the interaction of the proteins encoded by the Gal4 DNA-binding domain and activation domain constructs within transfected SFY526 yeast cells as assessed by the β-galactosidase expression filter assay. […]

Molecule	binding to MACHβ1 in transfected yeast (MACHβ1)	development of color (interaction with DNA-binding domain hybrid) (MACH B)
MACHα1: MACH isoform, cDNA SEQ ID NO: 14, amino acid SEQ ID NO: 7; contains CED3/ICE homology region	scored clearly positive	
MORT-1: Mediator of Receptor-induced Toxicity; protein binding the intracellular domain of FAS-R, SEQ ID NO:2 (protein) VNQAPECRFGGGILGPLGKRRDLARASEPRTEGARRAGPQPRPLADPAMDPFLVLLHSVSSSLSSSELTELKFLCLGRVVKRKLERVQSGLDLFSMLLEQNDLEPGHTELLRELLASLRRHDLLRRVDDFEAGAAAGAAPGEEDLCAAFNVICDNVGKDWRRLARQLKVSDTKIDSIEDRYPRNLTERVRESLRIWKNTEKENATVAHLVGALRSCQMNLVADLVQEVQQARDLQNRSGAMSPMSWNSDASTSEAS		+ (“+++” and “+” indicate the development of a strong color within 30 and 90 min. of the assay, respectively)
MACHβ1: MACH isoform, cDNA SEQ ID NO: 4, amino acid SEQ ID NO: 5; lacks the CED3/ICE homology region (protein) MDFSRNLYDIGEQLDSEDLASLKFLSLDYIPQRKQEPIKDALMLFQRLQEKRMLEESNLSFLKELLFRINRLDLLITYLNTRKEEMERELQTPGRAQISAYRVMLYQISEEVSRSELRSFKFLLQEEISKCKLDDDMNLLDIFIEMEKRVILGEGKLDILKRVCAQINKSLLKIINDYEEFSKERSSSLEGSPDEFSNDFGQSLPNEKQTSGILSDHQQSQFCKSTGESAQTSQH	self-associated	+ (“+++” and “+” indicate the development of a strong color within 30 and 90 min. of the assay, respectively)
MACHα1 (C360S): MACHα1 mutant in which the catalytic cysteine Cys360 is replaced by Ser (protein) MDFSRNLYDIGEQLDSEDLASLKFLSLDYIPQRKQEPIKDALMLFQRLQEKRMLEESNLSFLKELLFRINRLDLLITYLNTRKEEMERELQTPGRAQISAYRVMLYQISEEVSRSELRSFKFLLQEEISKCKLDDDMNLLDIFIEMEKRVILGEGKLDILKRVCAQINKSLLKIINDYEEFSKERSSSLEGSPDEFSNGEELCGVMTISDSPREQDSESQTLDKVYQMKSKPRGYCLIINNHNFAKAREKVPKLHSIRDRNGTHLDAGALTTTFEELHFEIKPHDDCTVEQIYEILKIYQLMDHSNMDCFICCILSHGDKGIIYGTDGQEAPIYELTSQFTGLKCPSLAGKPKVFFIQASQGDNYQKGIPVETDSEEQPYLEMDLSSPQTRYIPDEADFLLGMATVNNCVSYRNPAEGTWYIQSLCQSLRERCPRGDDILTILTEVNYEVSNKDDKKNMGKQMPQPTFTLRKKLVFPSD	bound	
